From PMC6118392, “VapC proteins from Mycobacterium tuberculosis share ribonuclease sequence specificity but differ in regulation and toxicity” (PLoS ONE, 2018)

Experiments:
[1] = target: the molecule itself; assay: SEC
[2] = target: T1, VapB29;VapC29 (Mycobacterium tuberculosis …, UniProt P9WJ37;P9WF79 1-75;1-133, |); assay: EMSA; conditions: protein: recombinant;recombinant; tags: ;C-terminal His; label: 3' DIG-ddUTP; blunt
T1 sequence 1: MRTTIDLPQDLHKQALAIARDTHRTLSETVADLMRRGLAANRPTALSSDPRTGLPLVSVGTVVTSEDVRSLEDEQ
T1 sequence 2: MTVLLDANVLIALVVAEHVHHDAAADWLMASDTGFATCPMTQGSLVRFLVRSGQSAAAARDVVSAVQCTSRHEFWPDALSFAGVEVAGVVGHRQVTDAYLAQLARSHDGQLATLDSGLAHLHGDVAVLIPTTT

B1: VapBC19 heterodimer (complex)
chain 1: MRTQVTLGKEELELLDRAAKASGASRSELIRRAIHRAYGTGSKQERLAALDHSRGSWRGRDFTGTEYVDAIRGDLNERLARLGLA
chain 2: MKLIDTTIAVDHLRGEPAAAVLLAELINNGEEIAASELVRFELLAGVRESELAALEAFFSAVVWTLVTEDIARIGGRLARRYRSSHRGIDDVDYLIAATAIVVDADLLTTNVRHFPMFPDLQPPY
notes: VapB19 antitoxin of Mycobacterium tuberculosis, gene Rv2547; as m3; VapC19 toxin of Mycobacterium tuberculosis, gene Rv2548; as m4; also called Rv2547/Rv2548
In the case of B1, the “stoichiometry N” value [1] is reported as 3.61 VapBC heterodimers per complex.

B2: Oligo 5 Bind 5 (Mut. 5) (dsDNA)
DNA 1: GGTGAGCGTCGGCGCGCGCATCACGATGCAAAAAAATTAGGATGAGGCGG
DNA 2: CCGCCTCATCCTAATTTTTTTGCATCGTGATGCGCGCGCCGACGCTCACC
B2: no binding [2].

B3: VapBC29 heterodimer (complex)
chain 1: T1 sequence 1
chain 2: T1 sequence 2
notes: VapB29 antitoxin of Mycobacterium tuberculosis, gene Rv0616a; as m7; VapC29 toxin of Mycobacterium tuberculosis, gene Rv0617; as m8; also called Rv0616a/Rv0617
With B3 the “stoichiometry N” value [1] was 5 VapBC heterodimers per complex.

B4: VapBC39 heterodimer (complex)
chain 1: MRTTLQIDDDVLEDARSIARSEGKSVGAVISELARRSLRPVGIVEVDGFPVFDVPPDAPTVTSEDVVRALEDDV
chain 2: MTALLDVNVLIALGWPNHVHHAAAQRWFTQFSSNGWATTPITEAGYVRISSNRSVMQVSTTPAIAIAQLAAMTSLAGHTFWPDDVPLIVGSAGDRDAVSNHRRVTDCHLIALAARYGGRLVTFDAALADSASAGLVEVL
notes: VapB39 antitoxin of Mycobacterium tuberculosis, gene Rv2530a; as m9; VapC39 toxin of Mycobacterium tuberculosis, gene Rv2530c; as m10; also called Rv2530a/Rv2530c
For B4, the “stoichiometry N” value [1] was 4.9 VapBC heterodimers per complex.

B5: VapBC1 heterodimer (complex)
chain 1: MATIQVRDLPEDVAETYRRRATAAGQSLQTYMRTKLIEGVRGRDKAEAIEILEQALASTASPGISRETIEASRRELRGG
chain 2: MDECVVDAAAVVDALAGKGASAIVLRGLLKESISNAPHLLDAEVGHALRRAVLSDEISEEQARAALDALPYLIDNRYPHSPRLIEYTWQLRHNVTFYDALYVALATALDVPLLTGDSRLAAAPGLPCEIKLVR
notes: VapB1 antitoxin of Mycobacterium tuberculosis, gene Rv0064a; as m1; VapC1 toxin of Mycobacterium tuberculosis, gene Rv0065; as m2; also called Rv0064a/Rv0065
For B5, the “stoichiometry N” value [1] was 5.6 VapBC heterodimers per complex.

B6: Oligo 5 Bind 3 (Mut. 3) (dsDNA)
DNA 1: GGTGAGCGTCGGCGCGAAAAAAACGATGCAGCGATGTTAGGATGAGGCGG
DNA 2: CCGCCTCATCCTAACATCGCTGCATCGTTTTTTTCGCGCCGACGCTCACC
B6: no binding [2].
